The values that follow come from PMC5228053.

The target of this assay is pyruvate kinase type M2 (PKM2) (human (endogenous in A549)) (UniProt P14618). The assay is described as follows: cross-linking; A549 cells in PBS (2 mg/ml protein), EDC 10 mM / sulfo-NHS 5 mM, room temperature, quenched with 20 mM DTT, then western blot for PKM2; cells treated with pTyr peptide, FBP or serine.

pyruvate kinase type M2 (PKM2), P14618 1-531 (enzyme; other documents disagree on this pair), sequence (P14618 whole entry): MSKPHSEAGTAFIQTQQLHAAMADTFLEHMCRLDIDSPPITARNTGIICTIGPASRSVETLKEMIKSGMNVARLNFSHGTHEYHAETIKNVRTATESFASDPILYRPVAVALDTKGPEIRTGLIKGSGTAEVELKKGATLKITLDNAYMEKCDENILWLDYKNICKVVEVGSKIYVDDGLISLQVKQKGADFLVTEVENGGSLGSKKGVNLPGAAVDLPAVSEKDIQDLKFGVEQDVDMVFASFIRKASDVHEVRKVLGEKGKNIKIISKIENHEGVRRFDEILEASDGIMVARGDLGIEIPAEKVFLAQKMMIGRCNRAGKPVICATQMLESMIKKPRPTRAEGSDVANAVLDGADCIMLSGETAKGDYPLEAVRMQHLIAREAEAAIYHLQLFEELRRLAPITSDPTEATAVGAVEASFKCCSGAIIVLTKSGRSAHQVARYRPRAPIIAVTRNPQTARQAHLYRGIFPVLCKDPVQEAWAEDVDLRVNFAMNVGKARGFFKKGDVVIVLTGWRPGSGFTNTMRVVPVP

In the case of “pyruvate kinase type M2 (PKM2), P14618 1-531 (enzyme; other documents disagree on this pair)”, the stoichiometry N worked out at 2.

In general, stoichiometry N refers to the number of molecules, sites or subunits per partner or assembly.
